Measurements reported in patent publication US20100227805A1.

Columns and labels:
Assay in all cases: cell-based or functional assay
[1] = target: human MIP-1α (CCL3) (human) (UniProt P10147)
[2] = target: murine MIP-1β (CCL4) (murine) (UniProt P14097)
[3] = target: murine RANTES (CCL5) (murine) (UniProt P30882)
Sequence of murine RANTES (CCL5) (murine) (P30882 24-91 limits assumed): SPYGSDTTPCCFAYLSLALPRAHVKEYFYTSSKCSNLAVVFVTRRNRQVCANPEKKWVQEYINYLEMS

Sequence of human MIP-1α (CCL3) (human) (P10147 27-92 limits assumed): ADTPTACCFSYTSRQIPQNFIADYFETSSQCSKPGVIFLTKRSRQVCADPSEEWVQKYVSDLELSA
Sequence of murine MIP-1β (CCL4) (murine) (P14097 24-92 limits assumed): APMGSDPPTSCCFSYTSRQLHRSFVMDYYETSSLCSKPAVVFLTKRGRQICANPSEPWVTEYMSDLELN

For hCCR5(EC2)-IgG (Fc fusion), which inhibition of chemokine-induced THP-1 cell migration (transwell chemotaxis assay) [1] is on record?
Its inhibition of chemokine-induced THP-1 cell migration (transwell chemotaxis assay) is 50%.

What does the source list for mCCR5(EC3)-IgG (Fc fusion)?
inhibition of chemokine-induced THP-1 cell migration (transwell chemotaxis assay) [2]: 50%; inhibition of chemokine-induced THP-1 cell migration (transwell chemotaxis assay) [3]: 50%
